Like-named read-outs stand apart in the source and are kept apart here.
Legend:
Format in all cases: binding
HCoV-OC43 gRNA and sgRNA = details: for target (unweighted spectral count): OC43 Probe II, infected cells
gRNA of HCoV-OC43 = test system: gRNA of HCoV-OC43
[1] = test system: SARS-CoV-2 gRNA and sgRNAs
SARS-CoV-2 gRNA = test system: SARS-CoV-2 gRNA

B1: FAM120A: host protein, UniProt Q9NZB2 (protein, UniProt Q9NZB2 1-1118, looked up)
Constitutive coactivator of …: MGVQGFQDYIEKHCPSAVVPVELQKLARGSLVGGGRQRPPQTPLRLLVDADNCLHRLYGGFYTDWVSGGQWNHMLGYLAALAKACFGGNIELFVFFNGALEKARLHEWVKRQGNERQTAQQIVSHVQNKGTPPPKVWFLPPVCMAHCIRLALIRFHVKVAQSIEDHHQEVIGFCRENGFHGLVAYDSDYALCNIPYYFSAHALKLSRNGKSLTTSQYLMHEVAKQLDLNPNRFPIFAALLGNHILPDEDLASFHWSLLGPEHPLASLKVRAHQLVLPPCDVVIKAVADYVRNIQDTSDLDAIAKDVFQHSQSRTDDKVIRFKRAIGYYSATSKPMSFHPPHYLAARPGPFGMPGMVPPHVPPQMLNIPQTSLQAKPVAPQVPSPGGAPGQGPYPYSLSEPAPLTLDTSGKNLTEQNSYSNIPHEGKHTPLYERSSPINPAQSGSPNHVDSAYFPGSSTSSSSDNDEGSGGATNHISGNKIGWEKTGSHSEPQARGDPGDQTKAEGSSTASSGSQLAEGKGSQMGTVQPIPCLLSMPTRNHMDITTPPLPPVAPEVLRVAEHRHKKGLMYPYIFHVLTKGEIKIAVSIEDEANKDLPPAALLYRPVRQYVYGVLFSLAESRKKTERLAFRKNRLPPEFSPVIIKEWAAYKGKSPQTPELVEALAFREWTCPNLKRLWLGKAVEDKNRRMRAFLACMRSDTPAMLNPANVPTHLMVLCCVLRYMVQWPGARILRRQELDAFLAQALSPKLYEPDQLQELKIENLDPRGIQLSALFMSGVDMALFANDACGQPIPWEHCCPWMYFDGKLFQSKLLKASREKTPLIDLCDGQADQAAKVEKMRQSVLEGLSFSRQSHTLPFPPPPALPFYPASAYPRHFGPVPPSQGRGRGFAGVCGFGGPYGETVATGPYRAFRVAAASGHCGAFSGSDSSRTSKSQGGVQPIPSQGGKLEIAGTVVGHWAGSRRGRGGRGPFPLQVVSVGGPARGRPRGVISTPVIRTFGRGGRYYGRGYKNQAAIQGRPPYAASAEEVAKELKSKSGESKSSAMSSDGSLAENGVMAEEKPAPQMNGSTGDARAPSHSESALNNDSKTCNTNPHLNALSTDSACRREAALEAAVLNKEE
HCoV-OC43 gRNA and sgRNA; 36 hpi, type n_36_v, tested against no-probe control, FDR<10%
  target (unweighted spectral count, OC43 Probe II capture): 18
HCoV-OC43 gRNA and sgRNA; 12 hpi (type n_12_v), tested against no-probe control
  target (unweighted spectral count): 4
HCoV-OC43 gRNA and sgRNA; 24 hpi (type n_24_v), tested against no-probe control
  target (unweighted spectral count): 18
HCoV-OC43 gRNA and sgRNA; type n_48_v, 48 hpi, OC43 Probe II capture on infected cells
  target (unweighted spectral count, OC43 Probe II): 33
HCoV-OC43 gRNA and sgRNA; type n_48_v, 48 hpi, no-probe control on infected cells
  background (unweighted spectral count, no-probe control): 2
HCoV-OC43 gRNA and sgRNA; type s_36_m, HCoV-OC43-infected HCT-8 cells, 36 hpi, Probe II
  target (spectral count): 19
HCoV-OC43 gRNA and sgRNA; type s_36_m, uninfected-probe control, 36 hpi, Probe II
  background (spectral count): 2
gRNA of HCoV-OC43; type g_36_m, HCoV-OC43-infected HCT-8 cells, 36 hpi, Probe I
  target (spectral count): 23
gRNA of HCoV-OC43; type g_36_m, uninfected-probe control, 36 hpi, Probe I
  background (spectral count): 2
gRNA of HCoV-OC43; type n_48_v: 48 hours post-infection, infected cells, OC43 Probe I, unweighted spectral count
  target (spectral count, OC43 Probe I RNP capture): 29
gRNA of HCoV-OC43; type n_48_v: 48 hours post-infection, no-probe control on infected cells
  background (spectral count, no-probe control): 2
[1]
  enrichment in SARS-CoV-2 Probe II RNP capture: found in the SARS-CoV-2 experiments
SARS-CoV-2 gRNA
  enrichment in SARS-CoV-2 Probe I RNP capture: found in the SARS-CoV-2 experiments

Reference: patent US20230407373A1 (priority 2020, published 2023)
